The values below come from publication doi:10.1101/2025.08.22.671821, “Cross-regulation of (p)ppGpp and c-di-GMP pathways controls a cell-cycle transition” (bioRxiv, 2025).

The data set deals with the molecule itself. Nature of the data set: crystal structure; PleD 5 mg/mL with 0.5 µM c-di-GMP and 5 mM ppGpp or pppGpp; sitting-drop vapor diffusion at 19°C; space group P6(1)22, 4 molecules per asymmetric unit; 2.9 Å (ppGpp) and 3 Å (pppGpp).

B1: PleD diguanylate cyclase from Caulobacter crescentus (enzyme)
chain: MSARILVVDDIEANVRLLEAKLTAEYYEVSTAMDGPTALAMAARDLPDIILLDVMMPGMDGFTVCRKLKDDPTTRHIPVVLITALDGRGDRIQGLESGASDFLTKPIDDVMLFARVRSLTRFKLVIDELRQREASGRRMGVIAGAAARLDGLGGRVLIVDDNERQAQRVAAELGVEHRPVIESDPEKAKISAGGPVDLVIVNAAAKNFDGLRFTAALRSEERTRQLPVLAMVDPDDRGRMVKALEIGVNDILSRPIDPQELSARVKTQIQRKRYTDYLRNNLDHSLELAVTDQLTGLHNRRYMTGQLDSLVKRATLGGDPVSALLIDIDFFKKINDTFGHDIGDEVLREFALRLASNVRAIDLPCRYGGEEFVVIMPDTALADALRIAERIRMHVSGSPFTVAHGREMLNVTISIGVSATAGEGDTPEALLKRADEGVYQAKASGRNAVVGKAA
notes: PleD, response regulator and diguanylate cyclase of Caulobacter crescentus (receiver domain D1, adaptor domain D2, DGC domain); expressed from pET11b-pleD; In the crystals each monomer carries two c-di-GMP at the I-site, and one (p)ppGpp and a Mg2+ in the active site; also called PleDCC; source: E. coli BL21(DE3), purified (Ni-NTA, SEC)
For the protein B1, the binding result is “binds”.
